Assay results reported in patent US20190309094A1 (Y BIOLOGICS, published 2019).
Numbering of substitutions follows the chain as printed.

B1: UCHT1 (antibody, V domains shown)
VH: EVQLQQSGPELVKPGPSMKISCKASGYSFTGYTMNWVKQSHGKNLEWMGLINPYKGVSTYNQKFKDKATLTVDKSSSTAYMELLSLTSEDSAVYYCARSGYYGDSDWYFDVWGQGTTLTVFS
VL: DIQMTQTTSSLSASLGDRVTISCRASQDIRNYLNWYQQKPDGTVKLLIYYTSRLHSGVPSKFSGSGSGTDYSLTISNLEQEDIATYFCQQGNTLPWTFAGGTKLEIKR
notes: A bought antibody (BioLegend); also called parental anti-CD3 antibody
B2: ACE-05-VL2 (other)
heavy: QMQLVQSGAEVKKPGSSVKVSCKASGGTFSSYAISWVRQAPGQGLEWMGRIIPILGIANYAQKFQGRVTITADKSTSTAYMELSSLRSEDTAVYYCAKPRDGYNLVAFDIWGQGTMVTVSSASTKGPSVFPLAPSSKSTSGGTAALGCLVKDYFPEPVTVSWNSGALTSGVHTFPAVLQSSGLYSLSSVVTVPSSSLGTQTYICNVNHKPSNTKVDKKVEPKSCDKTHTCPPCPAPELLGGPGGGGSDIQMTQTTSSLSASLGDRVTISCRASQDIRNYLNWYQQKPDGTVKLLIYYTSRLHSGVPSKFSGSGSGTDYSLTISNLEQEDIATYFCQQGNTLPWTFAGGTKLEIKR
light: QLVLTQPPSVSGAPGQRVTISCTGSSSNIGAGYDVHWYQQLPGAAPKLLIYGDINRPSGVPDRFSGSKSGISASLAITGLQAEDEADYYCQSYDSSLSGGVFGGGTKLTVLRTVAAPSVFIFPPSDEQLKSGTASVVCLLNNFYPREAKVQWKVDNALQSGNSQESVTEQDSKDSTYSLSSTLTLSKADYEKHKVYACEVTHQGLSSPVTKSFNRGEC
B3: ACE-05 (bispecific antibody)
heavy 1: not shown
heavy 2: not shown
light: B2 light
notes: also called ALiCE; ACE-05-VH + ACE-05-VL + ACE-05-LC
B4: ACE-09 (bispecific antibody)
heavy 1: not shown
heavy 2: not shown
light: B2 light with T113S
notes: also called ACE-09-VH + ACE-09-VL + ACE-09-LC

Tests used:
CD3 (Sino Biological) = assay: ELISA on CD3, curve fit
Protocol: Next day, plate was washed once with 200 μl of PBST, and then a surface blocking was performed at room temperature with 5% skim milk for 1-2 hours. […] Each well was then washed three times with 200 μl of PB ST to remove unbound samples. Horseradish peroxidase (HRP)-conjugated anti-human IgG (Fab specific) antibodies (Sigma, USA) were added to wells at a ratio of 1:1000 for a reaction at room temperature. After three times of washing with 200 ul of PBST, a color reaction of HRP was induced using TMB solution (GEhealthcare, USA) in a volume of 100 μl/well. The reaction was terminated by using a stop solution (2.5 M H₂SO₄, 100 μl/well). A spectrophotometer was used to measure the absorbance at a wavelength of A450 to calculate the binding affinity.

PD-L1 expressed on cells = PD-L1 expressed on cells (UniProt Q9NZQ7 19-290, limits assumed); assay: cell-based or functional assay
PD-L1 expressed on cells, sequence (Q9NZQ7 19-290 limits assumed): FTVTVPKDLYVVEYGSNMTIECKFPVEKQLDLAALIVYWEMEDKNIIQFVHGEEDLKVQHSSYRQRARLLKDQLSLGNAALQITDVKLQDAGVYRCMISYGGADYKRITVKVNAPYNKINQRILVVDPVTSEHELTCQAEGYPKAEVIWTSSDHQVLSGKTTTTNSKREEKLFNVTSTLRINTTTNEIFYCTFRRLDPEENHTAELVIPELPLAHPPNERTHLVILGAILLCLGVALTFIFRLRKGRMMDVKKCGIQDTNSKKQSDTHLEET

CD3 (Sino Biological), sequence (P07766 23-126, chain 1 of 2): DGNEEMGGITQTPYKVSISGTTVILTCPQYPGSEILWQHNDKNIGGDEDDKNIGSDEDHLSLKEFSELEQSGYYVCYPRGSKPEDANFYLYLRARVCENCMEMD
CD3 (Sino Biological), sequence (P04234 22-105, chain 2 of 2, further chain): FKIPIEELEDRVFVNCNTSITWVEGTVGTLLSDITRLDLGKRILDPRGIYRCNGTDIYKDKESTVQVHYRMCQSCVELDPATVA

| Binder | Bmax (CD3 (Sino Biological)) [OD 450 nm] | EC50 (read off the curve), PD-1/PD-L1 Blockade Bioassay (PD-L1 expressed on cells) [µg/mL] |
| --- | --- | --- |
| B1 | 3.67 |  |
| B2 |  | ~0.09 |
| B3 | 3.97 |  |
| B4 | 4.04 |  |
